Laboratory results from the supplement of paper PMC12764529.
± gives the half width of the 95% confidence interval.

Key:
[1] = folding stability dG unfold from trypsin proteolysis; higher = more stable
How it was run: (§1)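 How resistant each design was to proteolysis was captured as K50, inferred by Bayesian fitting of sequencing counts. Unfolding free energy was then derived relative to a sequence-predicted unfolded-state K50 and a shared folded-state K50, per protease or combined. Digestion used trypsin and chymotrypsin at 11 threefold-diluted concentrations plus a no-protease condition, on mini-proteins under 80 residues without cysteine in a PA-tagged cDNA display construct. Designs were kept only when AlphaFold2 dimer inter-PAE was above 15.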

[2] = folding stability dG unfold from chymotrypsin proteolysis; higher = more stable
How it was run: as §1

[3] = folding stability dG unfold (combined trypsin and chymotrypsin); higher = more stable
How it was run: as §1

Sequence	folding stability dG unfold [1] [kcal/mol]	folding stability dG unfold [2] [kcal/mol]	folding stability dG unfold [3] [kcal/mol]
SAGGSAGGSAGIWIPIKDPKEAVDYIQEWFHKKGGYDINIEPTEVYPDGWVRVEINIEPKSAGGSAGGSAGG [r17_430_TrROS]	0.151 ± 0.1	1.26 ± 0.18	1.06 ± 0.26
SAGGSAGGSAGKAKIEVVEVDKNGKVRLKIKLENGEVKEIENADEITINGKKIKVEKIEPSAGGSAGGSAGG [r11_1017_TrROS_Hall]	-0.311 ± 0.25	1.52 ± 0.042	1.11 ± 0.1
SAGGSAGGSAGKDIAKNIPPGAKILPIEPQPRGGGLYVKIEIEMPDPNGKKEKVTFTFPISAGGSAGGSAGG [r17_140_TrROS]	-0.467 ± 0.14	0.589 ± 0.26	0.366 ± 0.26
SAGGSAGGSAGKEEIKIEITKVEPLEDGSYIAEVIATPKNGKKIPYTALIDPKTGKITIGSAGGSAGGSAGG [r11_31_TrMRF]	0.527 ± 0.11	0.18 ± 0.14	0.426 ± 0.087
SAGGSAGGSAGKIEIDPSKPALVRVRLVPENGIPREIVVEAGDLSKLLPENFKVLSIELGSAGGSAGGSAGG [r17_449_TrMRF]	0.295 ± 0.09	0.397 ± 0.06	0.407 ± 0.067
SAGGSAGGSAGKIELTNIQVWPGPNGRPWISMTISFPDGPVTIWIPFDNPDNIEIEIKPGSAGGSAGGSAGG [r17_64_TrROS]	2.63 ± 0.1	3.02 ± 0.043	2.82 ± 0.084
SAGGSAGGSAGKIEVEGDVEVTVFPPYGLATVTTPNGERYVLLVETRPDGSKRVLLFSAGSAGGSAGGSAGG [r11_331_TrMRF]	2.02 ± 0.039	2.37 ± 0.026	2.26 ± 0.045
SAGGSAGGSAGKIKIEKDKNGNYRVILKNGKVYEFKSIEEAKEELKKKFPNIKEIEIVKTSAGGSAGGSAGG [r11_806_TrROS_Hall]	3.21 ± 0.18	4.29 ± 0.29	3.87 ± 0.3
SAGGSAGGSAGKIRDPNGNPFQIKDVEVEPPGPGDPYISIEYPDNGEEFTLPPEDAEDLFSAGGSAGGSAGG [r17_517_TrROS]	0.95 ± 0.038	2.13 ± 0.052	1.64 ± 0.27
SAGGSAGGSAGKKEKVILLPVDAEPDETPEELAKKLKELNPDVEVLGFDPETGYVLVKVPSAGGSAGGSAGG [r11_465_TrMRF]	0.107 ± 0.053	-0.0143 ± 0.28	0.149 ± 0.18
SAGGSAGGSAGKKELTFKDKNGKTITVTLEDGEIKEIKIEKPPKPKVVKTEKKYVPKEELSAGGSAGGSAGG [r17_287_TrROS_Hall]	0.0355 ± 0.16	0.0761 ± 0.069	0.135 ± 0.4
SAGGSAGGSAGKKITIPNLDVMRNPDDGMAFIQFGGQMIMIPPNVKIEQDPNGWMEIELPSAGGSAGGSAGG [r17_34_TrROS]	0.625 ± 0.064	-0.845 ± 0.69	0.144 ± 0.12
SAGGSAGGSAGKKITLPNATITYDEETGEVTITVDGKTITLPPGAKIEVDENGNLTIYLPSAGGSAGGSAGG [r17_34_TrROS_Hall]	2.45 ± 0.1	2.71 ± 0.075	2.55 ± 0.12
SAGGSAGGSAGKKKILLKFKSAEEALEAIKKGKTIKLKNGKTVKVKKVTLDKNGYLLIELSAGGSAGGSAGG [r11_48_TrROS_Hall]	2.23 ± 0.034	2.547 ± 0.021	2.44 ± 0.06
SAGGSAGGSAGKKKKIFLIKIEVVKVKVEKRKKKDGKLEEKVEIEIKIEITEIPLPPELLSAGGSAGGSAGG [r11_24_TrROS_Hall]	2.81 ± 0.12	3.02 ± 0.058	2.94 ± 0.19
SAGGSAGGSAGKKKKKPKPIVLVIKVKTKEEAEKLAEKLKELGFKVEIVEKKDGYLVIKLSAGGSAGGSAGG [r17_323_TrROS_Hall]	2.11 ± 0.12	3.8 ± 0.15	3.39 ± 0.18
SAGGSAGGSAGKKKLRLTLPGAEVEYDAATNELTIRLKAPPPPPKTTTKVETKTVLLPGKSAGGSAGGSAGG [r11_149_TrROS_Hall]	0.792 ± 0.076	1.2 ± 0.095	0.989 ± 0.18
